Data published in patent US20200199207A1 (MABYLON, published 2020).

B1: h4B2 (antibody, V domains shown)
VH: QVQLQEAGPRLVKPSQTLSVTCTVSGASITIGGYYWSWIRQHPGKGLEWMGYIYSNGRTYYNPSLKSRIAMSIDTSKNQFSLKLTSVTAADTAIYFCAREAWETPLWGQGTLITVSS
VL: DIQMTQSPSSLSASVGDRVTITCQANQDIVNSLNWFQHKPGTAPKVLIYDASKLETGVPSRFSGSGSGTHFTFTISGLQPEDFATYFCQQYENLPHTFGQGTKLEIR
notes: Recombinant human IgG; also called hMAb 4B2
B2: h7G6 (antibody, V domains shown)
VH: QVQLVESGGGVVQPGRSLRLSCAASGIAFNDYTMHWVRRSPDKGLEWVAAISYGGTNKYYADSVKGRFTISRDSSKNTLFLQMDSLRVEDTAVYYCARDSGYRSLLHWGQGTLVTVSS
VL: EIVLTQSPLSLPVTPGEPASISCRSSQSLVHRNGYNYLDWYLQKPGQSPQLLIYMASKRASGVPDRFSGSGSGTEFTLKISRVEAEDVGIYYCMQALQTWTFGQGTKVEVN
notes: Recombinant human IgG; also called hMAb 7G6
B3: h12G10 (antibody, human IgG1, V domains shown)
VH: EVQLLESGGRLLRPGGSLSLSCVASGFYFGDFGMSWVRQVPGKGLEWVSGIDWSGRSTGYVDSMKGRLTISRDNDKSSLYLQMNDLRGEDTAVYYCARVGRLCSGDSCDSMGAFDLWGQGTMVTVSS
VL: DIQLTQSPSTLSASIGDSVTITCRASQNIDNWLAWYQQKPGKAPRLLIYKASSLGSGVSSKFRGSGFGTEFTLTITSLQPDDFATYYCQKSNGYSRTFGQGTKVDIK
notes: Recombinant human IgG; also called hMAb 12G10
B4: h32B10 (antibody, V domains shown)
VH: QVQLVQSGAEVKKPGASVKVSCRASGYIFRNFDINWVRQATGQGLEWMGWMSPKSGDTGYAQKFQGRVTMTRDTSINTAYMELSSLTSEDSAVYYCARGVDGTNWGQGTRVTVSS
VL: DIVMTQSPDSLGVSLGERATISCKSSQSILDNSNNKNFIAWFQQKPGQPPKLLIYWASARESGVPDRFSGSGSGTEFTLTINSLQAEDVAVYYCYQYYSTPHTFGQGTKLDLR
notes: Recombinant human IgG; also called hMAb 32B10
B5: h2F8 (antibody, V domains shown)
VH: EVQLVESGGGLVKPGGSLRLSCAASGFIFSDYNMNWVRQAPGKGLEWVSSITRSSRTIYYADSVKGRFTISRDNAKNSLHLQMNSLRDADTAVYYCAREDFDVSTGPYYMDVWGNGTTVIVSS
VL: EIVLTQSPGTLSLSPGERATLSCRASQSVSNMFLVWYQQKPGQAPRLLMYGASTRATDIPDRFSGSGSGTDFTLTISRLEPEDFAVYYCQQNGNSPYTFGQGTKLEIK
notes: Recombinant human IgG; also called hMAb 2F8

Biological target: T1, Peptide 17 (peanut)
T1 construct: also called linear Ara h 2 peptide 17
T1 peptide: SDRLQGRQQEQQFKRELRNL
Assay: competition ELISA, peptide in solution vs coated Ara h 2
Procedure: (§1) A competition ELISA was used to evaluate binding of exemplary anti-peanut antibodies of the present invention to linear Ara h 2 epitopes. Serial dilutions of linear Ara h 2 epitopes (100 μM down to 0.19 nM; peptides with a length of 20 amino acids and an overlap of 12 amino acids between the peptides) were pre-incubated with exemplary anti-peanut antibodies ([…]) for 1 hour at room temperature. The pre-incubated antibody-epitope mixtures were subsequently incubated on plates coated with full length Ara h 2 (coating overnight at 4° C. with 0.05 μg/ml Ara h 2 in PBS, followed by wash out and blocking with 2% BSA in PBS). The plates were subsequently washed and binding of MAbs to Ara h 2 was detected HRP-conjugated goat anti human Fc-gamma-specific antibody (Jackson ImmunoResearch, West Grove, Pa., USA) followed by measurement of the HRP activity using a tetramethylbenzidine substrate solution (TMB, Sigma-Aldrich Chemie GmbH, Buchs, Switzerland). As may be seen from Table 5, exemplary anti-peanut allergen antibody 32B10 binds to different linear Ara h 2 epitopes than 12G10 and 37D5.

Row | Binder | binding result
1 | B1 | no binding (tested: 100 µM)
2 | B2 | no binding (tested: 100 µM)
3 | B3 | no binding (tested: 100 µM)
4 | B4 | no binding (tested: 100 µM)
5 | B5 | no binding (tested: 100 µM)

Biological target: T2, Peptide 16 (peanut)
T2 construct: also called linear Ara h 2 peptide 16
T2 peptide: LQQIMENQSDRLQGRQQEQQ
Assay: as above
Procedure: as §1

Row | Binder | binding result
6 | B1 | no binding (tested: 100 µM)
7 | B2 | no binding (tested: 100 µM)
8 | B3 | no binding (tested: 100 µM)
9 | B4 | no binding (tested: 100 µM)
10 | B5 | no binding (tested: 100 µM)

Biological target: T3, Peptide 4 (peanut)
T3 construct: also called linear Ara h 2 peptide 4
T3 peptide: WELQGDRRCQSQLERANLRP
Assay: as above
Procedure: as §1

Row | Binder | binding result
11 | B1 | no binding (tested: 100 µM)
12 | B2 | no binding (tested: 100 µM)
13 | B3 | no binding (tested: 100 µM)
14 | B4 | binds
15 | B5 | no binding (tested: 100 µM)

Biological target: T4, Peptide 20 (peanut)
T4 construct: also called linear Ara h 2 peptide 20
T4 peptide: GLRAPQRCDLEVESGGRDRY
Assay: as above
Procedure: as §1

Row | Binder | binding result
16 | B1 | no binding (tested: 100 µM)
17 | B2 | no binding (tested: 100 µM)
18 | B3 | no binding (tested: 100 µM)
19 | B4 | no binding (tested: 100 µM)
20 | B5 | no binding (tested: 100 µM)

Biological target: T5, Peptide 2 (peanut)
T5 construct: also called linear Ara h 2 peptide 2
T5 peptide: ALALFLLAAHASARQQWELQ
Assay: as above
Procedure: as §1

Row | Binder | binding result
21 | B1 | no binding (tested: 100 µM)
22 | B2 | no binding (tested: 100 µM)
23 | B3 | no binding (tested: 100 µM)
24 | B4 | no binding (tested: 100 µM)
25 | B5 | no binding (tested: 100 µM)

Biological target: T6, Peptide 9 (peanut)
T6 construct: also called linear Ara h 2 peptide 9
T6 peptide: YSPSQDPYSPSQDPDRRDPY
Assay: as above
Procedure: as §1

Row | Binder | binding result
26 | B1 | no binding (tested: 100 µM)
27 | B2 | no binding (tested: 100 µM)
28 | B3 | binds
29 | B4 | no binding (tested: 100 µM)
30 | B5 | no binding (tested: 100 µM)

Biological target: T7, Peptide 11 (peanut)
T7 construct: also called linear Ara h 2 peptide 11
T7 peptide: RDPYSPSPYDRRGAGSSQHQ
Assay: as above
Procedure: as §1

Row | Binder | binding result
31 | B1 | no binding (tested: 100 µM)
32 | B2 | no binding (tested: 100 µM)
33 | B3 | binds
34 | B4 | no binding (tested: 100 µM)
35 | B5 | no binding (tested: 100 µM)

Biological target: T8, Peptide 6 (peanut)
T8 construct: also called linear Ara h 2 peptide 6
T8 peptide: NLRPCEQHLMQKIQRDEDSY
Assay: as above
Procedure: as §1

Row | Binder | binding result
36 | B1 | no binding (tested: 100 µM)
37 | B2 | no binding (tested: 100 µM)
38 | B3 | no binding (tested: 100 µM)
39 | B4 | no binding (tested: 100 µM)
40 | B5 | no binding (tested: 100 µM)

Biological target: T9, Peptide 10 (peanut)
T9 construct: also called linear Ara h 2 peptide 10
T9 peptide: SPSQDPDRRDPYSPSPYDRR
Assay: as above
Procedure: as §1

Row | Binder | binding result
41 | B1 | no binding (tested: 100 µM)
42 | B2 | no binding (tested: 100 µM)
43 | B3 | binds
44 | B4 | no binding (tested: 100 µM)
45 | B5 | no binding (tested: 100 µM)

Biological target: T10, Peptide 18 (peanut)
T10 construct: also called linear Ara h 2 peptide 18
T10 peptide: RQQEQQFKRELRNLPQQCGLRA
Assay: as above
Procedure: as §1

Row | Binder | binding result
46 | B1 | no binding (tested: 100 µM)
47 | B2 | no binding (tested: 100 µM)
48 | B3 | no binding (tested: 100 µM)
49 | B4 | no binding (tested: 100 µM)
50 | B5 | no binding (tested: 100 µM)

Biological target: T11, Peptide 5 (peanut)
T11 construct: also called linear Ara h 2 peptide 5
T11 peptide: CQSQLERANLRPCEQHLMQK
Assay: as above
Procedure: as §1

Row | Binder | binding result
51 | B1 | no binding (tested: 100 µM)
52 | B2 | no binding (tested: 100 µM)
53 | B3 | no binding (tested: 100 µM)
54 | B4 | no binding (tested: 100 µM)
55 | B5 | no binding (tested: 100 µM)

Biological target: T12, Ara h 2 (peanut, UniProt Q6PSU2 22-172)
T12 construct: also called full length Ara h 2
T12 sequence (looked up): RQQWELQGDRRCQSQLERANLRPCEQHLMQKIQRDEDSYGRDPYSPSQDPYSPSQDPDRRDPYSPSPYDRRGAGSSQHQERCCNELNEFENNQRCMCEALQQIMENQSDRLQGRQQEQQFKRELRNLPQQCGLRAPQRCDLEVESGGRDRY
Assay: competition ELISA on coated Ara h 2; competitor: Patient G serum IgE
Procedure: (§2) Microplates were coated with […] of Ara h 1, Ara h 2, Ara h 3, or Ara h 6, overnight at 4° C. After washing with PBS-Tween 0.05% and blocking with 2% BSA, plates were incubated with increasing concentrations of peanut human IgG antibodies for 1 h at room temperature. Subsequently, plates were incubated with different sera dilutions or different concentrations of murine antibody (as positive control). IgE levels were detected using anti-human HRP-conjugated Fc-epsilon-specific secondary antibody (Abcam, Cambridge, UK) followed by addition of TMB solution (TMB, Sigma, Buchs, Switzerland). Binding of murine antibodies was detected using goat anti-mouse IgG (H+L)-HRP (Jackson ImmunoResearch, West Grove, Pa., USA).

Row | Binder | % inhibition of IgE binding [%]
56 | B1 | 31.8
57 | B3 | 25.7
58 | B4 | 32.8

Biological target: T12, Ara h 2
Assay: competition ELISA on coated Ara h 2; competitor: Patient F serum IgE
Procedure: as §2

Row | Binder | % inhibition of IgE binding [%]
59 | B1 | 30.8
60 | B3 | 45.3
61 | B4 | 23.1

Biological target: T12, Ara h 2
Assay: competition ELISA on coated Ara h 2; control: Healthy donor serum
Procedure: as §2

Row | Binder | % inhibition of IgE binding [%]
62 | B1 | 0
63 | B3 | 0
64 | B4 | 0

Biological target: T12, Ara h 2
Assay: competition ELISA on coated Ara h 2; competitor: Patient E serum IgE
Procedure: as §2

Row | Binder | % inhibition of IgE binding [%]
65 | B1 | 21.9
66 | B3 | 36.2
67 | B4 | 29.3

Biological target: T12, Ara h 2
Assay: competition ELISA on coated Ara h 2; competitor: Patient A serum IgE
Procedure: as §2

Row | Binder | % inhibition of IgE binding [%]
68 | B1 | 39.7
69 | B3 | 13.8
70 | B4 | 27.8

Biological target: T12, Ara h 2
Assay: competition ELISA on coated Ara h 2; competitor: Patient C serum IgE
Procedure: as §2

Row | Binder | % inhibition of IgE binding [%]
71 | B1 | 13.3
72 | B3 | 53.8
73 | B4 | 21

Biological target: T13, nAra h 3 (peanut)
T13 construct: Bought natural allergen; also called naturally extracted Ara h 3
Assay: ELISA, antigen-coated plate

Row | Binder | EC50 [ng/mL]
74 | B2 | 1.3
75 | B3 | 33.7
76 | B4 | 4.9
77 | B5 | 2.8
